In publication PMC9394474:

Molecular target: human hisTRIM7-PRYSPRY (human) (UniProt Q9C029)
Test: ITC

Substance | Kd [µM]
ac-LLQ (peptide) | 39
dipeptide LQ | 200
